Assay results: the RNAGym collection of RNA variant scans (doi:10.1093/nar/gkz1192)

B1: CPEB3 Ribozyme (parent)
chain: UAACAGGGGGCCACAGCAGAAGCGUUCACGUCGCAGCCCCUGUCAGAUUCUGGUGAAUCUGCGAAUUCUGCUGUAUAUCUC

Variants of: B1
Assay: self-cleavage, relative activity (ratio to wild type); higher = more cleavage; in vitro, sequencing
How it was run: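 Libraries of CPEB3 self-cleaving ribozyme mutants came from rounds of error-prone PCR and carried barcodes, which DNA sequencing matched to variants. In vitro transcription used T7 RNA polymerase at 37°C for 5 hours, with a further 15 min in DNase I before EDTA stopped the reaction; the ribozymes cleaved during both steps. The RNA was reverse transcribed with template switching and sequenced on Illumina. Relative activity is the cleaved/total read fraction of a variant divided by that of the unmutated ribozyme, averaged over three batches with at least 5 reads.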

Variant	self-cleavage
UAACAGGUGGCCACAGCAGAAGCGUCCACGUCGCAGCCCCUGUCAGAUUCUGGUGAAUCUGCGAAUUCUGCUGUAUAUCUC [G8U U26C]	0.14
UAACAGGUGGCCACAGCAGAAGCGUUCACGUCGCAGCCCCUGUCAGAUUCUGGUUAAUCUGCGAAUUCUGCUGUAUAUCUC [G8U G55U]	0.2
UAACAGGUGGCCACAGCAGAAGCGUUCACGUCGCAGCCCCUGUCAGAUUCUGGUGAAUCUGCGAAUUCUGCUGUGUAUCUC [G8U A75G]	0.12
UAACAGGUGGCCACAGCAGAAGCGUUCACGUCGCAGCCCCUGUCAGAUUCUGGUGAAUCUGCGAAUUCUGCUGUUUAUCUC [G8U A75U]	0.35
UAACAGGUGGCCACAGCAGAAGCGCUCACGUCGCAGCCCCUGUCAGAUUCUGGUGAAUCUGCGAAUUCUGCUGUAUAUCUC [G8U U25C]	0.12
UAACAGGUGGCCACAGCAGAAGCGUUCACGUCGCAGCCCCUGUCAGAUUCUGGUGAAUCGGCGAAUUCUGCUGUAUAUCUC [G8U U60G]	0.06
UAACAGGUGGCCACAGCAGAAGCGUUCACGUCGCAGCCCCUGUCAGAUUCUGGUGAAUCAGCGAAUUCUGCUGUAUAUCUC [G8U U60A]	0.07
UAACAGGUGGCCACAGCAGAAGCGUUCACGUCGCAGCCCCUGUCAGAUUCUGGUGAAUCCGCGAAUUCUGCUGUAUAUCUC [G8U U60C]	0.17
UAACAGGUGGCCACAGCAGAAGCGUUCACGUUGCAGCCCCUGUCAGAUUCUGGUGAAUCUGCGAAUUCUGCUGUAUAUCUC [G8U C32U]	0.14
UAACAGGUGGCCACAGCAGAAGCGUUCACGUCGCAGCCCCUGUCGGAUUCUGGUGAAUCUGCGAAUUCUGCUGUAUAUCUC [G8U A45G]	0.14
UAACAGGUGGCCACAGCAGAAGCGUUCACGUCGCAGCUCCUGUCAGAUUCUGGUGAAUCUGCGAAUUCUGCUGUAUAUCUC [G8U C38U]	0.04
UAACAGGUGGCCACAGCAGAAGCGUUCACGUCGCAGCCCCUGUCAGAUUCUGGUGUAUCUGCGAAUUCUGCUGUAUAUCUC [G8U A56U]	0.14
UAACAGGUAGCCACAGCAGAAGCGUUCACGUCGCAGCCCCUGUCAGAUUCUGGUGAAUCUGCGAAUUCUGCUGUAUAUCUC [G8U G9A]	0.33
UAACAGGUGGCCACAGCAGAAGCGUUCACGUCGCAGCCCCUGUCAGAUUCUGGUGAAUCUGCGAAUUCAGCUGUAUAUCUC [G8U U69A]	0.12
UAACAGGUGGCCACAGCAGAAGCGUUCACGUCGCAGCCCCUGUCAGAUUCUGGUGAAUCUGCGAAUUCCGCUGUAUAUCUC [G8U U69C]	0.09
UAACAGGUGGCCACAGCAGAAGCGUUCACGUCGCAGCCCCUGUCAGAUUCUGGUGAAUCUGCGCAUUCUGCUGUAUAUCUC [G8U A64C]	0.12
UAACAGGUGGCCACAGCAGAAGCGUUCACGUCGCAGCCCCUGUCAGAUUCUGGUGAAUCUGCGGAUUCUGCUGUAUAUCUC [G8U A64G]	0.2

Variant	self-cleavage
UAACAGGUGGCCACAGCAGAAGCGUUCACGUCGCAGCCCCUGUCAGAUUCUGGUGAAUCUGCGUAUUCUGCUGUAUAUCUC [G8U A64U]	0.08
UAACAGGUGGCCACAGCAGAAGCGUUCACGUCGCAGCCCCUGUCAGAUUCUGGUGAAACUGCGAAUUCUGCUGUAUAUCUC [G8U U58A]	0.32
UAACAGGUGGCCACAGCAGAAGCGUUCACGUCGCAGCCCCUGUCAGAUUCUGGUGAACCUGCGAAUUCUGCUGUAUAUCUC [G8U U58C]	0.1
UAACAGGUGGCCACAGCAGAAGCGUUCACGUCUCAGCCCCUGUCAGAUUCUGGUGAAUCUGCGAAUUCUGCUGUAUAUCUC [G8U G33U]	0.1
UAACAGGUGGCCACAGCAGAAGCGUUCACGUCACAGCCCCUGUCAGAUUCUGGUGAAUCUGCGAAUUCUGCUGUAUAUCUC [G8U G33A]	0.08
UAACAGGUGGCCACAGCAGAAGCGUUCACGUCGCAGCCCCUGUCAGGUUCUGGUGAAUCUGCGAAUUCUGCUGUAUAUCUC [G8U A47G]	0.13
UAACAGGUGGCCAUAGCAGAAGCGUUCACGUCGCAGCCCCUGUCAGAUUCUGGUGAAUCUGCGAAUUCUGCUGUAUAUCUC [G8U C14U]	0.06
UAACAGGUGGCCACAGCAGAAGCGUUCACGUCGCAGCCCCUGUCAGAUUCUGGUGAAUCUGCGAAUUCUGCUCUAUAUCUC [G8U G73C]	0.5
UAACAGGUGACCACAGCAGAAGCGUUCACGUCGCAGCCCCUGUCAGAUUCUGGUGAAUCUGCGAAUUCUGCUGUAUAUCUC [G8U G10A]	0.39
UAACAGGUGGCCACAGCAGAAGCGUUCUCGUCGCAGCCCCUGUCAGAUUCUGGUGAAUCUGCGAAUUCUGCUGUAUAUCUC [G8U A28U]	0.09
UAACAGGUGGCCACAGCACAAGCGUUCACGUCGCAGCCCCUGUCAGAUUCUGGUGAAUCUGCGAAUUCUGCUGUAUAUCUC [G8U G19C]	0.23
UAACAGGUGGCCACAGCAGAAGCGUUCACGUCGCAGCCUCUGUCAGAUUCUGGUGAAUCUGCGAAUUCUGCUGUAUAUCUC [G8U C39U]	0.08
UAACAGGUGGCCACAGCAGAAACGUUCACGUCGCAGCCCCUGUCAGAUUCUGGUGAAUCUGCGAAUUCUGCUGUAUAUCUC [G8U G22A]	0.12
UAACAGGUGGCCACAGCAGAAGCGUUCACGUCGCUGCCCCUGUCAGAUUCUGGUGAAUCUGCGAAUUCUGCUGUAUAUCUC [G8U A35U]	0.27
UAACAGGUGGCCACAGCAGAAGCGUUCACGUCGCAGCCCUUGUCAGAUUCUGGUGAAUCUGCGAAUUCUGCUGUAUAUCUC [G8U C40U]	0.11
UAACAGGUGGCCACAGCAGAAGCGUUCACGUCGCAGCCCCUGUCAGAUUCUGUUGAAUCUGCGAAUUCUGCUGUAUAUCUC [G8U G53U]	0.12
UAACAGGUGGCCACAGCAGAAGCGUUCACGUCGCAGCCCCUGUCAGAUUCUGAUGAAUCUGCGAAUUCUGCUGUAUAUCUC [G8U G53A]	0.2
